In US20060275823A1 (published 2006):

Biological target: T1, ICS (pro-IL-1beta-derived epitope)
T1 construct: also called ICS peptide; 14-mer called ICS
T1 peptide: NEAYVHDGPVRSLN
Assay: method not stated; measured in a different context from the cleavage assay, with LEPB lacking a free N-terminus

B1: LEPB (peptide)
peptide: KARKEAELAAATAEQ
notes: In the ICE cleavage experiment it was a synthetic peptide with a free N-terminus; also called synthetic LEPB; 15mer (LEPB)
B1 showed a Kd of 2000 nM.
